This note sets out measurements from patent US5624659, “Method of treating brain tumors expressing tenascin” (Duke University, dated 1997).

In the experiment the target is tenascin on the tenascin-expressing human glioma cell line U-251 MG-C3 (glutaraldehyde-fixed) (human, UniProt P24821). Briefly: modified Scatchard analysis, 125I-labelled antibody on glutaraldehyde-fixed U-251 MG-C3 cells. On the procedure: A modified Scatchard analysis was used to measure the binding affinity of labeled ch81C6. Serially diluted 125I-labeled antibody (200 μl, 1:2 dilution starting from 1600 ng/ml) was incubated in 48-well plates overnight at 37° C. with the antigen-positive human glioma cell line U-251 MG-C3 fixed in glutaraldehyde and the antigen-negative human osteogenic sarcoma cell line 2T. The cells were washed and solubilized with 2N NaOH, and the radioactivity was measured with a gamma counter. The data was analyzed in accordance with known techniques (Y. S. Lee et al., *Cancer Res.* 48, 559 (1988)).
The ch81C6 from high production transfectoma F9C11A5 was purified and further characterized. It was labeled with ^125I using the Iodogen method, and the percentage of immunoreactivity was determined by absorption with D-54 MG xenograft homogenate. The affinity constant was defined by Scatchard analysis using binding assay on a tenascin-expressing cell line U-251 MGC-3 as described above.

B1: chimeric 81C6 (mouse/human chimeric antibody, human IgG2, from transfectoma F9C11A5) (antibody, V domains shown)
VH: EVQLQQSGPELVKPGASVKMSCKASGYTFTSYVVHWVKQNPGQGLEWIGYINPFNDGTKYNENFKGKATLTSDRSSSTAYMELSSLTSEESAVYFCARDMGREGFAYWGQGTLVTVSA
VL: DIVMTQAAFSNPVTLGTSASISCRSSKSLLHSNGITYLYWYLQKPGQSPQLLIYQMSNLASGVPDRFSSSGSGTDFTLRISRVEAEDVGVYYCAQNLELPRTFGGGTKLEIK
The molecule B1 showed a Ka of 1.67e+08 M⁻¹.
